From US20200262867A1 (WNTRX PHARMACEUTICALS, published 2020)
*1 amine or outer side, *2 acyl side, *3 side chain or, on linkers, in order; H or OH if unused. Bridges are numbered along the chain shown (N, C = ends). Primed or numbered codes have the meaning given here. Where no end group is shown, it is not given here. Side-chain parts run from the residue outwards. [ ]: non-standard residue; d: D form. The star is where a group is joined. peptoid‑Q = (5-amino-5-oxopentyl)glycine, N-substituted glycine, NC(=O)CCCCN(CC(=O)[*:2])[*:1]; Diphenylacetyl = O=C(C(c1ccccc1)c1ccccc1)*; 2Nal = N[C@@H](Cc1ccc2ccccc2c1)C(=O)O; Hydrocinnamoyl = O=C(CCc1ccccc1)*; NMeR = CN[C@@H](CCCNC(=N)N)C(=O)O; Palmitoyl = CCCCCCCCCCCCCCCC(=O)*; Ala(cPr) = N[C@@H](CC1CC1)C(=O)O; hArg = N=C(N)NCCCC[C@H](N)C(=O)O; NMeE = CN[C@@H](CCC(=O)O)C(=O)O; NMeQ = CN[C@@H](CCC(N)=O)C(=O)O; dNMeQ = CN[C@H](CCC(N)=O)C(=O)O; Cha = N[C@@H](CC1CCCCC1)C(=O)O; Cba = N[C@@H](CC1CCC1)C(=O)O; S5 = C=CCCC[C@](C)(N)C(=O)O; Ac6c = NC1(C(=O)O)CCCCC1; PEG4′ = not defined here; Hexanoyl = CCCCCC(=O)*; Propionyl = CCC(=O)*; βAla = NCCC(=O)O

B1: SEQ ID NO: 163 (peptide)
peptide: HRQRSLQT[Cha]R[S5]IQR[S5][Cba][2Nal]
modifications: staple 11-15; not fully specified (residues 3, 7, N-terminus, C-terminus); printed as HR(N-methylQ)RSL(N-methylQ)T(Cha)RXIQRX(CBA)(2-Nal), X/X stapled, (S) α-methyl, N-terminal Ac, C-terminal NH2
B2: SEQ ID NO: 180 (peptide)
peptide: Ac-HRQRSLQTLR[S5]IQR[S5][Cha][2Nal]-NH2
modifications: staple 11-15
SMILES: CC[C@H](C)[C@@H]1NC(=O)[C@@](C)(NC(=O)[C@H](CCCNC(=N)N)NC(=O)[C@H](CC(C)C)NC(=O)[C@@H](NC(=O)[C@H](CCC(N)=O)NC(=O)[C@H](CC(C)C)NC(=O)[C@H](CO)NC(=O)[C@H](CCCNC(=N)N)NC(=O)[C@H](CCC(N)=O)NC(=O)[C@H](CCCNC(=N)N)NC(=O)[C@H](Cc2c[nH]cn2)NC(C)=O)[C@@H](C)O)CCCC=CCCC[C@@](C)(C(=O)N[C@@H](CC2CCCCC2)C(=O)N[C@@H](Cc2ccc3ccccc3c2)C(N)=O)NC(=O)[C@H](CCCNC(=N)N)NC(=O)[C@H](CCC(N)=O)NC1=O
B3: SEQ ID NO: 108 (peptide)
peptide: L[dNMeQ]TLR[S5]IQR[S5][Cba][2Nal]
modifications: staple 6-10; not fully specified (N-terminus, C-terminus); printed as L(N-methylQ)TLRXIQRX(CBA)(2-Nal), X/X stapled, (S) α-methyl, N-terminal Ac, C-terminal NH2
B4: SEQ ID NO: 132 (peptide)
peptide: Ac-L[NMeQ]TL[hArg][S5]IQR[S5][Cba][2Nal]-NH2
modifications: staple 6-10; not fully specified; printed as L(N-methylQ)TL(homoR)XIQRX(CBA)(2-Nal)
B5: SEQ ID NO: 116 (peptide)
peptide: L[dNMeQ]TLR[S5]I[dNMeQ]R[S5][Cba][2Nal]
modifications: staple 6-10; not fully specified (N-terminus, C-terminus); printed as L(N-methylQ)TLRXI(N-methylQ)RX(CBA)(2-Nal), X/X stapled, (S) α-methyl, N-terminal Ac, C-terminal NH2

target: T1, β-catenin (UniProt P35222 1-781, limits assumed); experiment: cell-based or functional assay
T1 sequence (looked up): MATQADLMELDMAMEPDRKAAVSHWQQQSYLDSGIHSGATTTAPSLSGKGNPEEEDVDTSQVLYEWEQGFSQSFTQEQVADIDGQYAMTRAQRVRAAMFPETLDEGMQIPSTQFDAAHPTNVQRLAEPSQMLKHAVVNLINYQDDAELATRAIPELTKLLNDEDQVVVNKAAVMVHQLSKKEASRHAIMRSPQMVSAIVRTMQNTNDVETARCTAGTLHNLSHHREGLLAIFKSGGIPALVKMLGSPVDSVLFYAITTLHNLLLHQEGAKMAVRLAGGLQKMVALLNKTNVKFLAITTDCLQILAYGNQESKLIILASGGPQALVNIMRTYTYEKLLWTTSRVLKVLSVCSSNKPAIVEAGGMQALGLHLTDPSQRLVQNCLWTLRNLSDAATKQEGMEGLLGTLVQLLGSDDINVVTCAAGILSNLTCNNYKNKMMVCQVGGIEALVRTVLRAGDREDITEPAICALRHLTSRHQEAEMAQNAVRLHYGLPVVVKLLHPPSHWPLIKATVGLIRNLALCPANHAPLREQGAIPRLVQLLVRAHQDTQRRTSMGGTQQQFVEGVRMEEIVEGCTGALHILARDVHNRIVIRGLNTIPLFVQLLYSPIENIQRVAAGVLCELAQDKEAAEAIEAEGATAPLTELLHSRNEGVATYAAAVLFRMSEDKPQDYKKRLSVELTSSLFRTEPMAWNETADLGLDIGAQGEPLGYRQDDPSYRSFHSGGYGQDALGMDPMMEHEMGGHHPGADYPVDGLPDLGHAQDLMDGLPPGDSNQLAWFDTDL

Q: How did the “IC50, Wnt/Beta-Catenin-LEF-TCF-bla HCT116 inhibitor screen” value turn out when Ac-HR[NMeQ]RSL[NMeQ]TLR[S5]IQR[S5][Cha][2Nal]-NH2 (staple 11-15; also: N-methylQ at 3 and 7: D or L (both stated)) [SEQ ID NO: 181] was run?
A: The value was 4460 nM.

Q: With Ac-HR[NMeE]RSL[NMeQ]TLR[S5]IQR[S5][Cba][2Nal]-NH2 (staple 11-15) [SEQ ID NO: 154] as the binder, how does the “IC50, Wnt/Beta-Catenin-LEF-TCF-bla HCT116 inhibitor screen” value read?
A: The value was 2260 nM.

Q: B1 was tested. Which “IC50, Wnt/Beta-Catenin-LEF-TCF-bla HCT116 inhibitor screen” value did it give?
A: The value was 4430 nM.

Q: How did the “IC50, Wnt/Beta-Catenin-LEF-TCF-bla HCT116 inhibitor screen” value turn out when B2 was run?
A: Its value is 2210 nM.

Q: With Ac-HRQRSLQTLR[S5]IQR[S5][Ala(cPr)][2Nal]-NH2 (staple 11-15) [SEQ ID NO: 162] as the binder, how does the “IC50, Wnt/Beta-Catenin-LEF-TCF-bla HCT116 inhibitor screen” value read?
A: Its value is 7050 nM.

Q: B3 was tested. Which “IC50, Wnt/Beta-Catenin-LEF-TCF-bla HCT116 inhibitor screen” value did it give?
A: Its value is 3160 nM.

Q: With Ac-HRQRSLQTLR[S5]IQR[S5][Cba][2Nal]-NH2 (staple 11-15) [SEQ ID NO: 147] as the binder, how does the “IC50, Wnt/Beta-Catenin-LEF-TCF-bla HCT116 inhibitor screen” value read?
A: Its value is 1540 nM.

Q: For Ac-HRQRSLQTLR[S5]IQR[S5][Ac6c][2Nal]-NH2 (staple 11-15) [SEQ ID NO: 177], which “IC50, Wnt/Beta-Catenin-LEF-TCF-bla HCT116 inhibitor screen” value is on record?
A: The value was 4450 nM.

Target: T2, β-catenin, P35222
T2 chain: T1 sequence (looked up)
Experiment: cell-based or functional assay

Q: With LQTLR[S5]IQR[S5]L[2Nal][βAla][βAla]GRKKRRQRRRPQK([PEG4′-Palmitoyl]) (staple 6-10) [SEQ ID NO: 34a] as the binder, how does the IC50, Colo320DM cell viability read?
A: Its IC50, Colo320DM cell viability is 20000 nM.

target: T1, β-catenin; experiment: ALPHA Screen (BCL9/β-catenin);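 also: bead proximity readout with the polypeptide linked to donor beads and β-catenin fixed on acceptor beads, their binding bringing the beads close enough to emit signal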
Source text: In this assay, a polypeptide is conjugated to a donor bead and its target protein (i.e., β-catenin) is attached to an acceptor bead. When the two beads are in proximity due to the binding of the polypeptide to the target protein, a signal is generated and the binding affinity of the polypeptide can be quantitatively calculated. The assay may be conducted in the presence or absence of an unconjugated control polypeptide.

Q: Which IC50 does the source give for {3,5‑dihydroxybenzoic acid}-L[NMeQ]TLR[S5]IQR[S5][Cba][2Nal]-NH2 (staple 6-10; also: N-methyl-Gln at 2: filing says both D and L) [SEQ ID NO: 140] here?
A: Its IC50 is 8160 nM.

Q: For Ac-HR[NMeQ]RSL[NMeQ]TLR[S5]IQR[S5][Cha][2Nal]-NH2 (staple 11-15; also: N-methylQ at 3 and 7: D or L (both stated)) [SEQ ID NO: 181], which IC50 is on record?
A: Its IC50 is 186 nM.

Q: B4 was tested. Which IC50 did it give?
A: Its IC50 is 11200 nM.

Q: For Ac-HR[NMeE]RSL[NMeQ]TLR[S5]IQR[S5][Cba][2Nal]-NH2 (staple 11-15) [SEQ ID NO: 154], which IC50 is on record?
A: The IC50 was 661 nM.

Q: Which IC50 does the source give for B1 here?
A: The IC50 was 195 nM.

Q: Which IC50 does the source give for Ac-HRQ[NMeR]SLQTLR[S5]IQR[S5][Cba][2Nal]-NH2 (staple 11-15) [SEQ ID NO: 168] here?
A: The IC50 was 434 nM.

Q: How did the IC50 turn out when Hexanoyl-L[NMeQ]TLR[S5]IQR[S5][Cba][2Nal]-NH2 (staple 6-10; also: N-methyl-Gln at 2: filing says both D and L) [SEQ ID NO: 136] was run?
A: The IC50 was 3520 nM.

Q: Which IC50 does the source give for Ac-HRQRSL[peptoid‑Q]TLR[S5]IQR[S5][Cba][2Nal]-NH2 (staple 11-15) [SEQ ID NO: 169] here?
A: Its IC50 is 328 nM.

Q: Ac-L[NMeQ]TLR[S5]IQ[hArg][S5][Cba][2Nal]-NH2 (staple 6-10; also: N-methyl-Gln at 2: filing says both D and L) [SEQ ID NO: 133] was tested. Which IC50 did it give?
A: Its IC50 is 9200 nM.

Q: Which IC50 does the source give for Ac-HRQ[hArg]SLQTLR[S5]IQR[S5][Cba][2Nal]-NH2 (staple 11-15) [SEQ ID NO: 167] here?
A: Its IC50 is 356 nM.

Q: B2 was tested. Which IC50 did it give?
A: The IC50 was 138 nM.

Q: For {2‑cyclohexylacetyl}-L[NMeQ]TLR[S5]IQR[S5][Cba][2Nal]-NH2 (staple 6-10; also: N-methyl-Gln at 2: filing says both D and L) [SEQ ID NO: 138], which IC50 is on record?
A: Its IC50 is 3820 nM.

Q: Propionyl-L[NMeQ]TLR[S5]IQR[S5][Cba][2Nal]-NH2 (staple 6-10; also: N-methyl-Gln at 2: filing says both D and L) [SEQ ID NO: 135] was tested. Which IC50 did it give?
A: The IC50 was 8540 nM.

Q: Ac-HRQRSLQTLR[S5]IQR[S5][Ala(cPr)][2Nal]-NH2 (staple 11-15) [SEQ ID NO: 162] was tested. Which IC50 did it give?
A: Its IC50 is 322 nM.

Q: Which IC50 does the source give for Diphenylacetyl-L[NMeQ]TLR[S5]IQR[S5][Cba][2Nal]-NH2 (staple 6-10; also: N-methyl-Gln at 2: filing says both D and L) [SEQ ID NO: 139] here?
A: The IC50 was 4580 nM.

Q: For Hydrocinnamoyl-L[NMeQ]TLR[S5]IQR[S5][Cba][2Nal]-NH2 (staple 6-10; also: N-methyl-Gln at 2: filing says both D and L) [SEQ ID NO: 137], which IC50 is on record?
A: Its IC50 is 8360 nM.

Q: How did the IC50 turn out when B3 was run?
A: The IC50 was 408 nM.

Q: For Ac-RSLQTLR[S5]IQR[S5]L[2Nal]-NH2 (staple 8-12; not fully specified; printed as RSLQTLRXIQRXL(2-Nal)) [SEQ ID NO: 4], which IC50 is on record?
A: The IC50 was 1910 nM.

Q: B5 was tested. Which IC50 did it give?
A: The IC50 was 26900 nM.

Q: How did the IC50 turn out when Ac-HRQRSLQTLR[S5]IQR[S5][Cba][2Nal]-NH2 (staple 11-15) [SEQ ID NO: 147] was run?
A: The IC50 was 186 nM.

Q: With Ac-HRQRSLQTLR[S5]IQR[S5][Ac6c][2Nal]-NH2 (staple 11-15) [SEQ ID NO: 177] as the binder, how does the IC50 read?
A: Its IC50 is 211 nM.

Target: T2, β-catenin, P35222
Experiment: ALPHA Screen (BCL9/β-catenin)

Q: Which IC50 does the source give for LQTLR[S5]IQR[S5]L[2Nal][βAla][βAla]GRKKRRQRRRPQK([PEG4′-Palmitoyl]) (staple 6-10) [SEQ ID NO: 34a] here?
A: The IC50 was 1380 nM.
